In article doi:10.1101/2021.01.18.427180 (bioRxiv, 2021):

Assays:
[1] = biological target: T1, recombinant human CD14 (human, UniProt P08571 20-345); experiment: flow cytometry of receptor-conjugated beads
T1 sequence: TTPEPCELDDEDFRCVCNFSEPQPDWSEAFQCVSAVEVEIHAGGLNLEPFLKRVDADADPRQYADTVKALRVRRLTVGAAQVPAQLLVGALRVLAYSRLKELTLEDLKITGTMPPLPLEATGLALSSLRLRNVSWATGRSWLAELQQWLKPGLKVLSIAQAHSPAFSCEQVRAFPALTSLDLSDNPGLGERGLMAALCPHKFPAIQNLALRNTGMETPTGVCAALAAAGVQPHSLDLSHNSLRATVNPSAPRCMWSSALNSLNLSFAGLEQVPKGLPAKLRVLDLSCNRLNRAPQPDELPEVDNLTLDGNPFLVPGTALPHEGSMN

[2] = biological target: recombinant human TLR2 (human, UniProt O60603); experiment: flow cytometry of receptor-conjugated beads
recombinant human TLR2, sequence (O60603 21-588): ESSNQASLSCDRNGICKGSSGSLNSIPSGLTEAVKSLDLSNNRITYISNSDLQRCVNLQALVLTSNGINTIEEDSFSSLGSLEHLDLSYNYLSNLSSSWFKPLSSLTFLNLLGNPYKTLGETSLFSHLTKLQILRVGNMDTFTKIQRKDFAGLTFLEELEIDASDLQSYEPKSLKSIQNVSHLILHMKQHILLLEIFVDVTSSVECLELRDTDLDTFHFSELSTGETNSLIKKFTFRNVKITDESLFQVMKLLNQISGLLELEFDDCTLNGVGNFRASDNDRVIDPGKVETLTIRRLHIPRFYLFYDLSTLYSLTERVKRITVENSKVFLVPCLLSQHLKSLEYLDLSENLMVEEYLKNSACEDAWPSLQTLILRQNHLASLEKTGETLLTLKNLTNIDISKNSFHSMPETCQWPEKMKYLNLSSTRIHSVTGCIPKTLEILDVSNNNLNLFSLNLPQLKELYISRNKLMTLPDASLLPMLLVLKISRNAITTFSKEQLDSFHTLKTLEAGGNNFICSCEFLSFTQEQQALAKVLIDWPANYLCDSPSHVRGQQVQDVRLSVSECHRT

Binder	binding result [1]	binding result [2]
GGLSSVGGGS [KAMP-10]	binds	binds
RAIGGGLSSVGGGSSTIK [KAMP-18C]	binds	binds
